Assay results taken from US20240026019A1 (Innovent, published 2024).

Target: T1, hTNFR2 protein (coated on the microplate in the blocking ELISA) (human, UniProt P20333 23-257)
T1 construct: The construct coated in the ELISA is not described (it may or may not be the immunogen, Sino biological 10417-H03H)
T1 sequence (looked up): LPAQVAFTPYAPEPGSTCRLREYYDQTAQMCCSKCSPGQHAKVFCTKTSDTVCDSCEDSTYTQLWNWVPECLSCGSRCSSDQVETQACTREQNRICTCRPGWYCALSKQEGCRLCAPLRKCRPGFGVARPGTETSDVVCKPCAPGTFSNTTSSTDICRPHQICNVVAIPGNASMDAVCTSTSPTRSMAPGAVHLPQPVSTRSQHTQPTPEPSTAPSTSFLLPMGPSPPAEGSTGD
Assay: blocking ELISA: hTNFR2 coated on the plate, binding of biotinylated TNFα blocked by the antibody, Avidin-HRP
Protocol: The ability of the hybridoma antibodies 3C4, 69B1, and 72G8 and the control antibody OPI to block the binding of human TNFα to hTNFR2 was assayed by ELISA.
The hTNFR2 protein was resuspended and dissolved to a concentration of 2 μg/mL with PBS, and a microplate was coated with the protein and incubated overnight. The plate was blocked with 5% BSA for 1 h, and a biotinylated antigen (Recombinant Biotinylated TNFα protein (ACRO)) was diluted to 3 μg/mL and added to the plate at 20 μL/well. The antibodies prepared as described above (3C4, 69B1, and 72G8) were each diluted in a gradient starting from the maximum concentration of 300 nM for a total of 8 or 12 dilution gradients. The diluted antibodies were added at 200 μL/well and incubated in PBS on ice for 30 min. The antigen-antibody mixture was incubated in a microplate for 90 min and washed three times with PBS, and the supernatant was discarded. 100 μL of Avidin-HRP (Invitrogen) diluted at a 1:5000 ratio was added to each well, incubated at room temperature for 30 min, and washed six times with PBS. A TMB chromogenic solution (solarbio) was added to the plate at 100 μL/well for color development for 1 min, and the reaction was stopped by adding a stop buffer (solarbio) at 100 μL/well. The plate was read on a microplate reader at OD₄₅₀ and OD₆₂₀.

B1: positive control antibody OPI (humanized antibody SBT-002e in WO 2017083525) (antibody, V domains shown)
VH: QVTLKESGPALVKPTQTLTLTCTFSGFSLSTSGMGVGWIRQPPGKALEWLAHIWWDDDKFYNPSLKSRLTISKDTSKNQVVLTMTNMDPVDTATYYCARLTGTRYFDYWGQGTTVTVSS
VL: DVQMTQSPSSLSASVGDRVTITCKASQDINKFIAWYQQKPGKAPKLLIHYTSTLQPGIPSRFSGSGSGRDYTFTISSLQPEDIATYYCLQYGNLWTFGGGTKVEIK
notes: also called Benchmark OPI
IC50 (read off the curve): ~6 nM
